Literature values, collected in article PMC7020651.

Legend:
[1] = target: Histone H4 1-12 (Homo sapiens) (UniProt P62805)
[2] = target: Histone H4 (Homo sapiens) (UniProt P62805); experiment: ITC

| Kd [1] [µM] | Kd [2] [µM] | Substance |
| --- | --- | --- |
| 350 | – | P/CAF bromodomain (from UniProt Q92831) |
| – | 40 | TAFII250 tandem bromodomains (from UniProt P21675) |
